Assay: label from the status in PepcDB records

Sequence | protein production
MQKTLTSAIDIPEQMQNDWQNMLDILSNVINVPAALIMRIYDNDIKVFSSSSSTENPYIKGATEKLNQGLYCETVIEERQELTVFNALVDPEWRSNPDLKQNMIAYCGLPLYWPDNTPFGTLCILDKKENHFSPTYQKLMKTYQHSIEAQLNTLYQHADLLNRHQELQAEVARTTQHLNEINIKLSNEIDCRRAAEQKVEYHKNHDVNTGFLNPIAIHKHVDSLIKSETKFVLLHIHFANSRKIQQEYGYQAFDSLLIEYRSKLTKITDTSVTGRLGSSDILLIIQTDKEKLPQLCQHLSEIGQANYTANEQSLHLQTYVGAVHSKEGISRSDLLQFAYDTVVKCQSLGKTFTIADVSLPTQSSLSEHKIERYLLEAVRNHDLFLNYQPKVCPVNKKWIGCEALLRWNHPHLGAIANDVLIQLAERNGLIYELGNFALRNAIQQASEWILHSPNFVMAVNISAVQLKDPHFVTHIKQLLSLYQLPSKNLELEVTESGLISDEPLAITTLSQLNNMGISIALDDFGTGYASFQYLKKYPFSSLKIDKSFIANIEQNEDDQNIVCAMINIAKKLQLKVVVEGVENQNQEAFVVKEGIDLIQGYLYSKPISATDFEEGLFNQSSIGTPYFHFV | failed
MQLFHKTVNRRGTHSIKWDTYKNEELIHAWIADMDFEVPQPIQTALKKRIEHPIFGYTLPPENIGDIICNWTKKQYNWDIQKEWIVFSAGIVPALSTSIQAFTKENESVLVQPPIYPPFFEMVTTNNRQLCVSPLQKQNDTYAIDFEHLEKQFQQGVKLMLLCSPHNPIGRVWKKEELTKLGSLCTKYNVIVVADEIHSDIIYADHTHTPFASLSEELAARTITCMAPSKTFNIAGLQASIIIIPNEKLRQAFTSIQYRQGFHGLNIFAYTAMQSAYTECNDWLNEIRFYIEDNAKFACEYIKDHIPTLSVMKPEGSFLLWIDCSALNLSQDERTKLLEEKGKIIVEPGEKYGLGGEEHIGINIGCPRSVLEEILNRLRHTFS | not failed
MQLGFAMLADPILLITILLGFAMAWAIGANDAANSMSTAVGAGAITPRQAVIIAGVLEFMGAYFFGKTVTETIRKGIIDPSKITDPNVLIFGSIAALIGATIWLVIATKYGLPVSTTHSIIGGIVGYGIVYGGMSIVNWDKMIKVVLSWILSPIVGAIFAYLVFRALSKTVLQSKDPVKSAKRWSPFWIGLAFVVIGTMFYIKVLHGNSLLEGFLKYGMPAGILTFIVVSLILEKRFPATDPYLGAERVFRRVQVITSAYVALAHGANDVANAIGPVAAVYTVAMFGLAGAKVPVPRWILALGGLGIAIGVATYGYKVMETVGKKITELTNTRGFTIDFSAATVVLIASWLGMPISTTHTVVGAVIGVGLARGIKAINKDIVKDIIISWFVTVPAAGVIAGIIFKALMMLMG | failed
MQLPPIPDNELQRLSTLKALNILDTNAEERFDRITRLTRRIFALPICVVTLVDASRQWFKSCQGLEVTETSRDISFCGHAINHDGIFIVNDAQMDPRFHDNPLVTQSPHIRFYAGYPLTIRGEYRVGTLCLIGNEPREFSADDIETLTDLGQMVEAELLSISLNTLDPLTMISNRRGFEQLAFQSLASCRRTNSQAALVFFDLDFFKELNDSFGHRKGDQVLYDFAHLLMAAFRESDVIARLGGDEFVVLLSFVKIDAVHVAIERFQSLLEQYNQQHPQQPTLVSSIGVAHWSPELDINLEDLLDAADRAMYQDKAEHHLNKPE | failed
MQLQVMNSPFNQEQAELLNRLLPTLTESQKIWLSGYLSAQSVSAQEAAGTPAAAVSAEAPAPAVSKEVTVLYGSQTGNAQGLAENAGKQLEQSGFQVTVSSMSDFKPNQLKKVTNLLIVVSTHGEGEPPDNALSFHEFLHGRRAPKLEDLRFSVLALGDSSYEFFCQTGKEFDQRLEELGGKRISPRVDCDLDYDEPAAEWLEGVLKGLNEAGGGSAAPAPAAASQTGESSYSRTNPFRAEVLENLNLNGRGSNKETRHVELSLEGSGLTYEPGDSLGVYPENDPELVELLLKEMNWDPEEIVTLNKQGDVRPLKEALISHYEITVLTKPLLEQAAQLTGNDELRELLAPGNEENVKAYIEGRDLLDLVRDYGPFSVSAQEFVSILRKMPARLYSIASSLSANPDEVHLTIGAVRYDAHGRERKGVCSILCAERLQPGDTLPVYVQHNQNFKLPKDPETPIIMVGPGTGVAPFRSFMQEREETGAEGKAWMFFGDQHFVTDFLYQTEWQNWLKDGVLTKMDVAFSRDTEEKVYVQHRMLEHSAELFEWLQEGAAVYICGDEKHMAHDVHNTLLEIIEKEGNMSREEAEAYLADMQQQKRYQRDVY | failed
MQLSHRPAETGDLETVAGFPQDRDELFYCYPKAIWPFSVAQLAAAIAERRGSTVAVHDGQVLGFANFYQWQHGDFCALGNMMVAPAARGLGVARYLIGVMENLAREQYKARLMKISCFNANAAGLLLYTQLGYQPRAIAERHDPDGRRVALIQMDKPLEP | not failed
MQMKKDFGYIRVGVASCELKVANPNYNVKSIISIMKKAYRRHHIKVLVFPELCVTGYTCGDLFNQNLLIKRAENELNNLLVSTSNINMITAVGMPVKADNQLFNCAVIINNGNILGVVPKTFIPTYNEFYEKRNFAGAISRISDEIILCGKKVPFGENLLFKDIYSELCIGIDICEDLWVNIPPSSYHTLNGANLILNLSASDEIVAKSDYRRDLVRLQSAKCITSYAYASSGQTESTSDLVFSGHSIIADNGSILKDIKFEEASYVKYADVDIEKLISDRIKFNTYMGRIEDKEYRTINFHLGYNENMHLERYVEASPFVPSNKSKRNIRCREILDLQASGLYQRLNKTGINKAVVGISGGLDSTLALLVIVEAFKKLKAPMKNIIGITMPGFGTTRRTYNNAVELMKKLGITIKEISIKKACIQHFNDIGQDLNTHDTIYENSQARERTQILMDIANKEGAIVVGTGDLSELALGWCTYNGDQMSMYGVNSSIPKTLVKYLIMWYAEASKDNDIRNILLDIYNTPVSPELLPPDKEGNIKQKTEDLIGSYELNDFFLYNMLRSGYEPLKILYLANIAFKDKYSEDVIHSALKNFYKRFFTQQFKRNCMPDGVKIGSVSLSPRGDLRMPSDASYGLWMDEL | failed
MQMLRNLSTRTRSRRGGYERVSDDSTFSLLGAKLRRSTSVPYYAPSIRLGGDFPVILEKLPRQKPTKTVVTSKLSHPIFSLFDGYRRHNKKKATAKPEFSRYHEYLKESGMWDLRSNSPVIYFK | failed
MQNIARNISNRLAGFVYRQMRKAHANANSTVGYSVNANGALLAGCVIDCRSGKSDGRVFFGKDSVLSCRIVLERDVGTVHIGNDSYVGGSQIICADHIEIGNNVLISWGCTIVDHDSHSVDWRNRAEDVRKWREGLLSGGLEKASESKDWAVVEKAPIKIGDKTWLGMNVTVLKGITIGEGAVVAAGSVVTKDVDPWTLVAGNPARVIKELPKS | failed
MQNMFDGVQLFVEVVEAGGFAKAGKRLSLTRSTIGKAIARLEMRLGVQLFQRTTRVQSLTEDGQQYYERCLRAIKELRAGEAMLEQGRREVAGRLHVSLPVLFGRQCVAPILRTYAREHPQLELELNFSDHHVDLIADGFDLAVRNGPLGNGTTLRARRLGNQRKILCASPTYLAARGKPHTLADLADHDLLTYCRNDRNMAWTLPDATGALVDIPITSRLRCNDLEVIADTAVDGMGVAWLPYWLLMERMQRGELIGIWGDRPSAVIECHVVWPAAQHVPLRSRLAINLLAAELPKYLEA | failed
MQNPRRICVADPNHRLSQKRFTRNSRDIFICPDCGCIMADVDFDHDQYESGDYYTMQHKTVQSIEEVWGFRWRYILDQILKINGRSSLLDVGAGNGYFVALASREFSFDASGLEISQEEVQFAADVLNIGLIREDLTQHNLDYDVVTCLNVLEHVVDPQLFLSHLVNRVKPGGLLVITTPNPACIHRKVKGLKNWNMIAPPHHINLFTKESLYILLMRYGLIQLDYQTISTYVNFVRGFDTENLLLRRLFFNLLKIFDLGADHFFIVKKPSQC | failed
MQNQYFTVQENYKERFYQIPKVFFTSENYKNLTNDMKIAYAILRDRLNLSIKNSWVDEDGNIYFVYSNEKLMEILNCKKEKLTKIKKGL | failed
MQNSIYKQFWKYTIPTVAAMLVNGLYQVVDGIFIGRYVGADGLAGINVAWPVIGSILGIGMMVGVGTGALTSIKQGEQDQQGAKRVLTTGLLFLLALMPIVATILFFFADDFIRWQGAQERVYELGLQYLQILIVACIFSLGSIAVPFLLRNDNSPNLATILMVIGAIINIVLDYVFIAWMNWELTGAAIATALAQMVVTVLGVGYFFSSKAKLRLTFRELKVQLDAIPKIVLIGTSSFFMYAYGSTMVALHNALFAQYGSPLLIGAYAILGYIVTVYYLVAEGIANGMQPLVSYNHGARNQDNIRKLLQIAMGTSVLGGVVFVVLMNLFPYQLVSVFNDADQQLIESAVMGIRLHMFALFMDGFLVVAGAYYQSVNKGSKAMFVTVGNMLIQLPFLFIMPKLLGVTGIWIAFPLSNIALSLVVMSMLWRDIKKLMVDSPVEPSIQAS | not failed
MQPFLFSDSSACLHVSPAMKISVIIPVYNDPSGIDATLRSVMEQDHSDYEVIPVDNNSTDRTPAVIREWAHQYPNRIRPASEHDTQSSYAARNAGIEAAQGEILVFIDADMAAPSYWLTDVHEAFSASEADYLGYEVDVYVPEDEAGFWGWYDTVMGLPSRYHYDEKQFVPTSCLAVRRAVFEKVGRFDETAVSGGDKEFGERVHRHPDLTTAFRDDIVVCHPARTTFEAHRAKALRVGRGLARLCDPSTASGDTTSVLIELLLHAVPPDPRRVAEQAHDVPAHQFLRLYIADWILRYLRLYGALTYCRKEAPE | failed
MQPFVYMAAPARIVFSAGSSADVAEEIRRLGLSRALVLSTPQQKGDAEALASRLGRLAAGVFSEAAMHTPVEVTKTAVEAYRAAGADCVVSLGGGSTTGLGKAIALRTDAAQIVIPTTYAGSEVTPILGQTENGVKTTMRGPEILPEVVIYDAELTLGLPVAISMTSGLNAMAHAAEALYARDRNPIASMMAVEGLRAMIEALPVVRQAPHDIGARETALYGAWLCGTVLGAVGMSLHHKLCHTLGGSLDLPHAETHAVLLPHTIAYVEEAAPNLLAPLAALVGGRAGAGLFDFAARLGAPSSLAALGVGADDLDPMAELATANPYWCPRPIEKTAIRDLLQRAFEGARPA | not failed
MQPRFLGQLGLADVVTVANAALGFIAAAVAVFDTELAARLILLAAIADGLDGVIARFRGGTPVGPILDSLADVASFGVAPAVLVYALASGGEVTLDEPLAVAAVVVAALYVAMAVVRLGFYLLEDDGAPETVGVQTTLAATVLSVLHLAGVTDPAVFVAATAAFAYLMVASITYPELYARDALILGGLQACVVLFPTAFGRAFPRVLLVFALGYLLLAPVAYWRSTEGKRS | failed
MQPTGNQIQQNQQQQQQLIMRVPKQEVSVSGAARRYVQQAPPNRPPRQNHQNGAIGGKKSSVTIQEVPNNAYLETLNKSGNNKVDDDKLPVFLIKLWNIVEDPNLQSIVHWDDSGASFHISDPYLFGRNVLPHFFKHNNMNSMVRQLNMYGFRKMTPLSQGGLTRTESDQDHLEFSHPCFVQGRPELLSQIKRKQSARTVEDKQVNEQTQQNLEVVMAEMRAMREKAKNMEDKMNKLTKENRDMWTQMGSMRQQHARQQQYFKKLLHFLVSVMQPGLSKRVAKRGVLEIDFCAANGTAGPNSKRARMNSEEGPYKDVCDLLESLQRETQEPFSRRFTNNEGPLISEVTDEFGNSPVGRGSAQDLFGDTFGAQSSRYSDGGATSSREQSPHPIISQPQSNSAGAHGANEQKPDDMYMGSGPLTHENIHRGISALKRDYQGASPASGGPSTSSSAPSGAGAGARMAQKRAAPYKNATRQMAQPQQDYSGGFVNNYSGFMPSDPSMIPYQPSHQYLQPHQKLMAIEDQHHPTTSTSSTNADPHQNLYSPTLGLSPSFDRQLSQELQEYFTGTDTSLESFRDLVSNHNWDDFGNNVPLDDDEEGSEDPLRQLALENAPETSNYDGAEDLLFDNEQQYPENGFDVPDPNYLPLADEEIFPHSPALRTPSPSDPNLV | not failed
MQRANREHLEIISLEEISMLVSSDFDLPEVLQHVTAKVATQLKVSVCNIYLREGDEVVLAATHGFDPAFIGKIRIKIGDGITGSVARDGQYISLSRASQDPRYRYFPELQEEKYNSMLSFPIGDKKEVYGVINLNTTSIRSFHEDEIYFVSIIANLILTAIKLRQQVASSRKAAEA | not failed

Source: a protein production outcome set (Wang et al. 2014)
